# From patent publication US11505783B2, “Differentiation of human embryonic stem cells” (Janssen Biotech, Inc., priority 2007, dated 2022)
# B1: Netrin-4: netrin protein added at 100 ng/ml (R&D Systems) (protein, UniProt Q9HB63 19-628, looked up)
# Netrin-4: GLSGVAGVSSRCEKACNPRMGNLALGRKLWADTTCGQNATELYCFYSENTDLTCRQPKCDKCNAAYPHLAHLPSAMADSSFRFPRTWWQSAEDVHREKIQLDLEAEFYFTHLIVMFKSPRPAAMVLDRSQDFGKTWKPYKYFATNCSATFGLEDDVVKKGAICTSKYSSPFPCTGGEVIFKALSPPYDTENPYSAKVQEQLKITNLRVQLLKRQSCPCQRNDLNEEPQHFTHYAIYDFIVKGSCFCNGHADQCIPVHGFRPVKAPGTFHMVHGKCMCKHNTAGSHCQHCAPLYNDRPWEAADGKTGAPNECRTCKCNGHADTCHFDVNVWEASGNRSGGVCDDCQHNTEGQYCQRCKPGFYRDLRRPFSAPDACKPCSCHPVGSAVLPANSVTFCDPSNGDCPCKPGVAGRRCDRCMVGYWGFGDYGCRPCDCAGSCDPITGDCISSHTDIDWYHEVPDFRPVHNKSEPAWEWEDAQGFSALLHSGKCECKEQTLGNAKAFCGMKYSYVLKIKILSAHDKGTHVEVNVKIKKVLKSTKLKIFRGKRTLYPESWTDRGCTCPILNPGLEYLVAGHEDIRTGKLIVNMKSFVQHWKPSLGRKVMDILKRECK
# B2: Noggin: recombinant human Noggin, BMP inhibitor (R & D Systems) (protein, UniProt Q13253 28-232, looked up)
# Noggin: QHYLHIRPAPSDNLPLVDLIEHPDPIFDPKEKDLNETLLRSLLGGHYDPGFMATSPPEDRPGGGGGAAGGAEDLAELDQLLRQRPSGAMPSEIKGLEFSEGLAQGKKQRLSKKLRRKLQMWLWSQTFCPVLYAWNDLGSRFWPRYVKVGSCFSKRSCSVPEGMVCKPSKSVHLTVLRWRCQRRGGQRCGWIPIQYPIISECKCSC
# Experiments:
# Format in all cases: cell-based
# [1] = tested on: human embryonic stem cell line H1; assay: Real-time PCR of markers, Noggin at stages 3-4, Netrin-4 and ALK5 inhibitor II at stage 4 (Example 8)
# [2] = tested on: human embryonic stem cell line H1; assay: Real-time PCR of markers, Noggin at stage 3 with ALK5 inhibitor II at stages 4 and 5 (Example 6)
# Description: Cells of the human embryonic stem cell line H1, at passage 41 were cultured on […] ™ coated dishes (1:30 dilution) and exposed to DMEM/F12 medium supplemented with 0.5% FBS, and 100 ng/ml Activin-A (R&D Systems, MN) plus 20 ng/ml WNT-3a (Catalog #1324-WN-002, R&D Systems, MN), for two days followed by treatment with DMEM/F12 media supplemented with 2% FBS and 100 ng/ml Activin-A (AA) for an additional two days. Next the cultures were treated with DMEM/F12+2% FBS+20 ng/ml FGF7+0.25 μm Cyclopamine-KAAD (#239804, Calbiochem, CA) for three days followed by four day incubation in DMEM/F12+1% B27 (Invitrogen, CA)+20 ng/ml FGF7+0.25 μm Cyclopamine-KAAD+2 μm Retinoic acid (RA) (Sigma, MO)+0-500 ng/ml of Noggin (R & D Systems, MN).
# [3] = tested on: human embryonic stem cell line H1; assay: Real-time PCR of markers, Noggin at stages 3 and/or 4 with ALK5 inhibitor II at stages 4 and 5 (Example 7)
# From the text: FIGS. 8A-8D depict a phase contrast image of the cultures according to the above protocol. In some of the cultures, stage 5 was extended from 3 days to 21 days. By day 10-12 of culture in stage 5 media, there were distinct clusters of cells resembling human islets present throughout the culture plate. FIGS. 8A-8B show images of day 6 cultures in stage 5 while FIGS. 8C-8D show images of day 12 stage 5 cultures. Some of the clusters were manually removed, plated on 1:30 […]-coated plates in stage 5 media. After 2 days of incubation, the clusters were stained for insulin and glucagon. The majority of the cells in the clusters as shown in FIGS. 9A-9B were positive for human insulin. In order to further optimize the dose of the BMP inhibitor, Noggin; cultures were treated at stage 2-4 with 0, 10, 50, or 100 ng/ml of Noggin. FIG. 10 depicts expression of NGN3 at stage 4 for cultures treated with varying doses of Noggin at stages 2-4.
# [4] = omission of Noggin at stage 4, Netrin-4 plus Alk5 inhibitor added, end of stage 5
# [5] = Noggin at both stages 3 and 4, compared to untreated samples
Molecule,"expression of NGN3, NeuroD, and Pax4 ([1]; 100 ng/ml Netrin-4 and ALK5 inhibitor II at stage 4 plus 100 ng/ml Noggin at stage 3 and 4)","expression of albumin and CDX2 ([2]; 100 ng/ml at stage 3, compared to untreated samples)","expression of insulin and glucagon ([2]; 100 ng/ml at stage 3, end of stage 4, 1 μm ALK5 inhibitor II at stages 4 and 5)",expression of PDX-1 ([2]; 500 ng/ml at stage 3),"expression of endocrine markers, along with albumin and CDX2 ([2]; 500 ng/ml at stage 3)","expression of NGN3, NKX2.2, and NeuroD [1, 4]","expression of insulin and glucagon [1, 4]","expression of insulin and glucagons ([3]; 100 ng/ml Noggin at stage 3+4 plus ALK5 inhibitor II, stages 4-5)","expression of NGN3 [3, 5]","expression of albumin and CDX2 [3, 5]","Noggin concentration resulting in maximal expression of NGN3 at stage 4 ([3]; cultures treated at stage 2-4 with 0, 10, 50, or 100 ng/ml)"
B1,dramatically enhanced,,,,,,,,,,
B2,,significantly suppressing,marginally enhanced,did not affect,significantly diminish,significantly reduce,moderately affecting,dramatically enhanced,significantly enhanced,significantly suppressing,50 to 100 ng/mL
